Measured values reported in the DeepSol protein solubility set.

Experiment: soluble on expression in E. coli; label from the status in PepcDB or PDB records

Soluble on expression in E. coli, soluble:
MSLGENVEFKEFLGNFHLKEGRFRQLACQMNHRIIMGKGVALYVVGVSDSGEIKGIDENKFSETIEVLKKLATEIEAEVSSVERHEVNGGYVGLVEIRKTKAKEHILVGTAGHVDHGKSTLVGCLITGKPDDGDGATRVYLDVLKHEIERGLSAEISFAVFGYKDGKVLRMKNPLSKAEKAMVVETADKLVSFVDTVGHEPWLRTTIRGLLGQKVDYGLLVVAANDGVMRTTKEHLGIMLAMDLPVIVAVTKADMVDDARLSEVLQEISATLRRVGRVPTVLKSRHDARKAAEMVKSNKLLVPVVITSAVTLEGYDILEEIFLHLPKRYTADEDFLMYIDKIYSVTGVGTVVSGSVKSGELAEGDEVYIGPFQDGSFRRVRIQSIEMHHYRIDRAKAGDIIGAAVKGVRYDELRRGMVISRKEPRAVWEFDAEIYVFTHPTLISVGYEPVMHVETISETVTFVEMDKEYLKPGDRGIVRMKFKYHPHFVYEGQKFIFREGRSKGMGEIIRVFEGHHHHHH
GPGSMSSLTEGARASHTSSKEAGYYRLQSPKHINIDPCVYEIRTMRGSGPGGQGTNSSSNKVELRADMELLSEFFDEELLAALRRHEAGGALTNDGTTIVVSCHEHRSALQNKEGCLRKLQTLLHKASWVPPAEAGLVERPSFIVTEQKVRRRKKSNMNRMTRSARSGSW
MGVVLIDGSTVRSFVDDEEQFKKSVDERFAALDLNKDGVLSRSELRKAFESMRLLESHFGVDVVTPQDELTNLYDSIFEKFDTDQSGSVDLEEFRSEMKKIVLAIADGLGSCPITMVLDDDDDNFLKKAADLEASKLEKASS
MSGSVSGCGSGGCSIVWFRRDLRVEDNPALAAAVRAGPVIALFVWAPEEEGHYHPGRVSRWWLKNSLAQLDSSLRSLGTCLITKRSTDSVASLLDVVKSTGASQIFFNHLYDPLSLVRDHRAKDVLTAQGIAVRSFNADLLYEPWEVTDELGRPFSMFAAFWERCLSMPYDPESPLLPPKKIISGDVSKCVADPLVFEDDSEKGSNALLARAWSPGWSNGDKALTTFINGPLLEYSKNRRKADSATTSFLSPHLHFGEVSVRKVFHLVRIKQVAWANEGNEAGEESVNLFLKSIGLREYSRYISFNHPYSHERPLLGHLKFFPWAVDENYFKAWRQGRTGYPLVDAGMRELWATGWLHDRIRVVVSSFFVKVLQLPWRWGMKYFWDTLLDADLESDALGWQYITGTLPDSREFDRIDNPQFEGYKFDPNGEYVRRWLPELSRLPTDWIHHPWNAPESVLQAAGIELGSNYPLPIVGLDEAKARLHEALSQMWQLEAASRAAIENGSEEG
MSKWIILSDNHKETGILYHIYELHKDADKFLHLGDSEFSYNDTELSLYQRVKGNCDFYPEFLEEEITEENGIRAFYTHGHLYQVNQTRMKLAEKAKELGCLFAFYGHTHVAKYEQIGGIHVINPGSISQSRSQIEETFAELVYKEDENTIILNFRNRENQIIETVKIEFLEHHHHHH
MSQLVYFSSSSENTQRFIERLGLPAVRIPLNERERIQVDEPYILIVPSYGGGGTAGAVPRQVIRFLNDEHNRALLRGVIASGNRNFGEAYGRAGDVIARKCGVPWLYRFELMGTQSDIENVRKGVTEFWQRQPQNA
MSGALFLIPAPLGDETVAWLPEGERAKVVHITHFVVEAEKTARKHLKALGVTTPIRELSMSTLNEHTKETDVAALLAPLQAGHDVGLISEAGCPAVADPGAQLVALAHQRDIRVEPLIGPSSILLALMASGANGQCFAFHGYLPVDAAEKSKLVKELEQRSRKHNETQLFIETPYRNNALLAQLRETLAPSTRLAVACDLTLPTQTIVSHRVQDWPQNPPDLHKRPAIFVIHAALEHHHHHH
MRRAELAGLKTMAWVPAESAVEELMPRLLPVEPCDLTEGFDPSVPPRTPQEYLRRVQIEAAQCPDVVVAQIDPKKLKRKQSVNISLSGCQPAPEGYSPTLQWQQQQVAQFSTVRQNVNKHRSHWKSQQLDSNVTMPKSEDEEGWKKFCLGEKLCADGAVGPATNESPGIDYVQIGFPPLLSIVSRMNQATVTSVLEYLSNWFGERDFTPELGRWLYALLACLEKPLLPEAHSLIRQLARRCSEVRLLVDSKDDERVPALNLLICLVSRYFDQRDLADEPSLEHHHHHH
GEVRNIVDKTASFVARNGPEFEARIRQNEINNPKFNFLNPNDPYHAYYRHKVSEFKEGKAQEPS
VRKRMVIGLSTGSDDDDVEVIGGVDPRLIAVQENDSDESSLTDLVEQPAKVMRIGTMIKQLLEEVRAAPLDEASRNRLRDIHATSIRELEDGLAPELREELDRLTLPFNEDAVPSDAELRIAQAQLVGWLEGLFHGIQTALFAQQMAARAQLQQMRQGALPPGVGKSGQHGHGTGQYL
MFVVKDCCQMIEVLFFIFKTNFKNCFPKMRKSKMYKSEPYSKKTIKIKKATDCGVITNIFSHFNEYVKQTIR

Soluble on expression in E. coli, not soluble:
MIQIRPMTPEDFDRFWPTFQAVVVAQETYAYDPALTQEQACDVWLKLPLHTLIAEEDGQLLGSYYLKANAAGPGNHVCNCGYMVTDAALGRGVARLMCEHSQQLARDSGFLAMQFNSVVASNEVAVALWAKLGFETVGRLPKAYRHARLGLVDCLVMFKWLADAPIAAEPVQPKLIGRKNIESVVSRPRRK
MAHHHHHHMKKSGKGRIKLKIQINTEEEENKENIIYENKNKKRKGSDISDDNDESIEKFKDLDNSYASDRKQKEDNDLEKKIISIISQLTKITCICEDKKNNINNLENEKICKKLIKQMYKYEKYLLQFSNYINENNNHNLDDITFPNGLIKAVDNYINPNVWIYQYLLLETKKQNDSYRNLIQNISTFDSTLKHKILNNDSNHLVNPVYPPLDENLLNSLNNTQQNYYKNVHIPKELSHYYLKSRNKTKED
MSDTSYKLGITKTFPCNYLPDQQERLLIAVDERLHNSESYGWLMTQGFRRSGDQSYRPSCPNCNACQSIRVLTSDFLPSKSQKRSKKRNSHFIIKQSSQLKDSYYPLFENYINTLHQDGSMYPASFQQFESFLSCNLTQQLFIETWAPANEENGPKEDKLVCVAVTDVLSNGLSAVYTFYHPDYKANGLGVFSILTQLSLSQQMSLPYLYLGYQIDECQKMNYKDRYFPFERFIDGQWLINTKPSVNKAKIAKLEHHHHHH
MGSDKIHHHHHHVTTIRFLNGLNTIGGNIVEFATKTSRVIMDFGVAADLSNETVSSAIDNGKLPHVPELFFDQPDVYTHEAIFISHLHIDHMGALQYLKKPIPIYLSEPSYKLYQLLIKLGIEKPVANLHPLAYEQPLTIGDLTVTGFHSDHDEPGVMALLVDDGSRRYAHSGDVRLNGPHAKRVHAWAKRFNQEKLSLFMLEGTSFSFDTAAPVEDQDHPSIPLTEMSLQKQFQTVLAESPTLVVINPYIRNYERLASFQASAHTAGRQLVWEPDDAAVLTTMTDQKPDAILGQTISLTDIARDPQHYVLQNSFDHLERLTDMPITTYIHSNGEPLGDYDPRFAQLKDWLEAHHIPLQFMNASGHASREDLITLAKEVNPRTIVPWHSFHPEREAEALDTQTNAAVVLPERDLYYDFDELSEDE
TPDFTWKTSLNFSANKNKIVELHEELKEFVYGPTSFSSSYAMKLVKGGSIGDIYGKAFIRDEAGSIVYGTDGDYKGLPLVEGDGNTVKVGNANPDFMLGWNHSFSYKGFSLYFLLDWRYGGEVLSQTQAEMDLYGVSKATAQARDKGYVSLEGQQISDVKGFYKNVVGGRAGVTEYYMYDATNLRLREISLSYSFPRKWVQKTNCLKDLQLSFVARNLCFLYKKAPFDPDLVLSTGNDNQGIEVFGMPTTRSLGFTLTCEF
MGSDKIHHHHHHMEMDERFKDKWYLVKYKFFSNPFYKDFDVYDSSNNVVFTARMNALNPVTRDIVVYEVNKARSEILLISGKHFIRWPNNFEMTSIATREKIGTFRNGPAGWAVLDEYGRQVAILKRIEDPSGAIMYQIRMDSTSVCEYRFINIITPVIMIDFPDESIFSKKMGIGLALVLGYQSVAFNYTYQGW
MGDYDYLIKFLALGDSGVGKTSFLHRYTDNTFTGQFISTVGIDFKEKKVVYKSSRGGFGGRGQRVLLQLWDTAGQERFRSLTTAFFRDAMGFILIFDITNEQSFLNIRDWLSQLKVHAYCEQPDIIICGNKADLENRRQVSTARAKQLADQLGLPYFETSACTSTNVEKSVDCLLDLVMQRIQQSVETSSLPLSECRGVSLDGDPSAASSYCANC
MGSDKIHHHHHHMNKLEERSQHRKSRFRFLVISTFWRVLLLLKNDAEPLFHLGNIHYAYGHKASAMNYWKEAVSKNREHEKAWHNLVQCAVIQEEWEQAAEGLTILCRNHPTRFEYMSLYTHALKKLGKKEELEEWYLSHINGPHHEWAIEGLGMLYIRTRREIDAFKLLSPFVRKFPNRPVGLKILGISSIRTNQYEAGLTFLEKSLELKEDKEVKSLVDRVKRLKKVRGGNR
MSLASLSLAPVNIFKAGADEERAETARLTSFIGAIAIGDLVKSTLGPKGMDKILLSSGRDASLMVTNDGATILKNIGVDNPAAKVLVDMSRVQDDEVGDGTTSVTVLAAELLREAESLIAKKIHPQTIIAGWREATKAAREALLSSAVDHGSDEVKFRQDLMNIAGTTLSSKLLTHHKDHFTKLAVEAVLRLKGSGNLEAIHIIKKLGGSLADSYLDEGFLLDKKIGVNQPKRIENAKILIANTGMDTDKIKIFGSRVRVDSTAKVAEIEHAEKEKMKEKVERILKHGINCFINRQLIYNYPEQLFGAAGVMAIEHADFAGVERLALVTGGEIASTFDHPELVKLGSCKLIEEVMIGEDKLIHFSGVALGEACTIVLRGATQQILDEAERSLHDALCVLAQTVKDSRTVYGGGCSEMLMAHAVTQLANRTPGKEAVAMESYAKALRMLPTIIADNAGYDSADLVAQLRAAHSEGNTTAGLDMREGTIGDMAILGITESFQVKRQVLLSAAEAAEVILRVDNIIKAAPRKRVPDHHEGHHHHHH
MGSDKIHHHHHHMIENVNYARTLLTEEEVGHIVQSGTIVRYKKGQIIFSESDAADRVYFVKEGYVRIFRITQYGRRVTVGCIRSPGQLMGLAETLYGGDRTCFASAIDDVTIVVIRHQQFLDLLEKHPAIAIKVTITLAIRMREAEGIIEEMVCFQVPGRLAQLLIKMAKRAGMETPRGTKISFRLTHEDIAYMIGTSRQNVTSLLNTFKYENSIAIEDKELYILDIEKLNSWVV
MGHHHHHHSHMKDIGHLQHLAQRLQWNRRAVNICGMHGWTKDLSPHSRMPSMLEHVKHYMSC
MGSDKIHHHHHHVVIGFFKKLFNVRDRNEQAKFTGITTAEKRQQTKPQTPVPAIEVTEHQAVESQLDLSALFYSLLFATPSTTTTGIANNLERSVMQNIEQALSSPQSIAENVLKLPSKILELDKKLGDDNIETQELILLIEQDPLLCVEVLKLCNSPAFKRADTDVSSIQQALVQVGRQQLRQFITACLARELIDIKPIYFRRFGAEIWRHSMQVAFLASELASNEQRDSAFLLGLLHDVGKIAIFKMLVDAFYQAEPGEQPNSILFKQVMTTKSLTLSALLARSWQLSQHFETPLTLLANTNIKPTDGMTLLIWKANIISECSMLLQVDKLPQPALAVLLAQVECSEEDFIELHQKLIQF
MGSDKIHHHHHHMEHTYRLVISCPDRVGIVAKVSNFLSTYNGWITEASHHSDTQAGWFFMRHEIKAESIPFGLDQFRAAFEPIAREFNMNWHIADSARPKRVILMCSKESHCLADLLHRWHSKELNCEIVAVISNHDDLRRMVEWHEIPYHHVPVSKENKAEAFAHIDELFQQYETDVVVLARYMQILPAELCGKYSGKVINIHHSFLPSFAGARPYHQAYSRGVKLIGATCHYVTQDLDEGPIIEQDVIRISHSDSIEDMVRLGKDVEKNVLARGLRSHIEDRVITYENKTVVFD
